Source: article PMC12067093 (2025)

B1: TRIM25 PRYSPRY (protein)
chain: KVLETFLAKSRPELLEYYIKVILDYNTAHNKVALSECYTVASVAEMPQNYRPHPQRFTYCSQVLGLHCYKKGIHYWEVELQKNNFCGVGICYGSMNRQGPESRLGRNSASWCVEWFNTKISAWHNNVEKTLPSTKATRVGVLLNCDHGFVIFFAVADKVHLMYKFRVDFTEALYPAFWVFSAGATLSICSPK
modifications: TRIM25 covalently pre-labelled with heterobifunctional compound HB2
B2: TRIM25 PRYSPRY (protein)
chain: KVLETFLAKSRPELLEYYIKVILDYNTAHNKVALSECYTVASVAEMPQNYRPHPQRFTYCSQVLGLHCYKKGIHYWEVELQKNNFCGVGICYGSMNRQGPESRLGRNSASWCVEWFNTKISAWHNNVEKTLPSTKATRVGVLLNCDHGFVIFFAVADKVHLMYKFRVDFTEALYPAFWVFSAGATLSICSPK
modifications: TRIM25 covalently pre-labelled with heterobifunctional compound HB3
B3: TRIM25 PRYSPRY (protein)
chain: KVLETFLAKSRPELLEYYIKVILDYNTAHNKVALSECYTVASVAEMPQNYRPHPQRFTYCSQVLGLHCYKKGIHYWEVELQKNNFCGVGICYGSMNRQGPESRLGRNSASWCVEWFNTKISAWHNNVEKTLPSTKATRVGVLLNCDHGFVIFFAVADKVHLMYKFRVDFTEALYPAFWVFSAGATLSICSPK
modifications: TRIM25 covalently pre-labelled with heterobifunctional compound HB1

target: BRD4 BD2 (Homo sapiens, UniProt O60885); assay: SPR

Row | Binder | Kd [nM]
1 | B1 | 20
2 | B2 | 22.5
3 | B3 | 15
